Laboratory results reported in US20190338026A1 (University of Texas, published 2019).

T1: human LAIR1 extracellular domain (ECD) protein with 6 HIS tag at the C-terminus (human, UniProt Q6GTX8 22-165)
T1 construct: Produced recombinantly in HEK293 cells; the whole entry is named here; also called LAIR1 ECD; LAIR1-ECD
T1 chain: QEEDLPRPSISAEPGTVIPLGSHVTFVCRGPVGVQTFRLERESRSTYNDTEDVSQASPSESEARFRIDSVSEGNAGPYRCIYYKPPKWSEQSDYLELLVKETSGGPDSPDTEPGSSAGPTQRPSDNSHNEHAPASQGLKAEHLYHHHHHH

T2: LAIR1 on LAIR1 reporter cells (human, UniProt Q6GTX8 22-165, limits assumed)
T2 chain: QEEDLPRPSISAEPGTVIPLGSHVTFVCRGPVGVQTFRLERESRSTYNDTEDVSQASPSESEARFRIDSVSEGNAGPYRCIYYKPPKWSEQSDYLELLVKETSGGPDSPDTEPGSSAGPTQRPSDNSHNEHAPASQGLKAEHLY

T3: recombinant LAIR1 (human, UniProt Q6GTX8 22-165, limits assumed)
T3 construct: also called LAIR1 (Octet analyte)
T3 chain: T2 chain

B1: LA-259-2 (antibody, V domains shown)
VH: QSVKESGGRLVTPGTPLTLTCTASGFSLYKYNIQWVRQAPGKGLEYIGASTYAGYTYYASWAKGRVTISRTSTTVDLKMTSPTTEDTATYFCARHIDGDYSGYALWGPGTLVTISS
VL: ELVMTQTPASVSAAVGGTVTIKCQASQSIGTWFAWYQQKPGQSPKLLIYGPSKLASGVPPRFKGSGSGTEFTLTISDLECDDAATYYCQSNGGSISNGWGSFGGGTEVVVK
notes: Rabbit monoclonal IgG
B2: LA-94 (antibody, V domains shown)
VH: EQSLEESEGRLVTPGTPLTLTCTASGFSLSGYHMSWVRQAPGKGLEYIGYISERGTSYYANWAKGRFTVSKSSSSTVVLSIISPTAEDTATYFCARYGGGDSAFILWGPGTLVTISS
VL: ELVMTQTPASVSGPVGGTVTIKCQASHNIDNSLAWYQQKPGQPPKLLIYKASTLASGVSSRFKGSGSGTEYTLTISDLECADAATYFCQGTIGLNSGCAFGGGTEVEIK
notes: Rabbit monoclonal IgG; Called an agonist antibody; also called mAb LA-94; agonist Ab LA-94
B3: LA-192 (antibody, V domains shown)
VH: EQSLEESGGRLVTPGTPLTLTCTASGFSLSSYYMTWVRQAPGKGLEWIGYMHTGGGVVYASWATGRFTISRTSTTVDLKITSPTTEDTATYFCARSHAGYSTINRLDLWGVGTLVTISS
VL: ELDLTQTPSSVSAAVGGTVTISCQSSPSVYTNNLSWFQQKPGQPPKLLIYDASKLESGVPSRFRGSGSGTQFTLTISDVQCDDAATYYCAGAYLSDSDTTFGGGTELEIK
notes: Rabbit monoclonal IgG; Called an agonist antibody
B4: LA-258-2 (antibody, V domains shown)
VH: QSVKESGGDLVKPEGSLTLTCKASGFSFSNSYYMCWVRQAPGKGLEWIACIYTGSTSGTYYASWVNGRFTISKTPSTTVTLQMTSLTVADTATYFCSRKLTNFNGAYLDLWGPGTLVTISS
VL: ELVMTQTPSSVEAAVGGTVTIKCQASQSIYSYLAWYQQKPGQPPKVLIYKASTLASGVPSRFKGSGSGTDFTLTISDLECADAATYYCQANNGGSDNNFGGGTEVEIK
notes: Rabbit monoclonal IgG
B5: LA-258-3 (antibody, V domains shown)
VH: B4 VH
VL: ELVLTQTPASVEAAVGGTVTINCQASQSISNLLAWYQQKPGQPPKVLIYKASTLASGVPSRFKGSGSGTDFTLTISDLECADAATYYCQANNGGSDNNFGGGTEVVVKA
notes: Rabbit monoclonal IgG
B6: LA-235 (antibody, V domains shown)
VH: SSSVEESEGRLVTPGTPLTLTCTVSGFSLSSYTMGWVRQAPGEGLEWIGTTSNDGSTYYASWAKGRFTISKTSSTTVDLMMTSLTTEDTATYFCVRGTNIRSLWGPGTLVTISS
VL: ELVMTQTPASVEAAVGGTVTIKCQASQSIGSNLAWYQQKPGQPPKLLIYLASALASGVSSRFKGSGSGSDFTLTISDLECADAATYYCQCTYGSSNNNNYGDPFGGGTEVEIK
notes: Rabbit monoclonal IgG; Called an antagonist antibody
B7: LA-121 (antibody, V domains shown)
VH: EQSVEESGGRLVTPGTPLTLTCTASGFSLYKYNIQWVRQAPGKGLEYIGASTYAGYTYYASWAIGRVTISRTSTTVDLKMTSPTTEDTATYFCARHIDGDYSGYALWGPGTLVTISS
VL: ELDLTQTPASVSAAVGGTVTIKCQASQSIDTWFGWYQQKPGQSPKLLIYGASKLASGVPPRFKGSGSGTEFTLTISDLECADAATYYCQNTYYGVRYLGGAFGGGTEVEIK
notes: Rabbit monoclonal IgG

Target: T1, human LAIR1 extracellular domain (ECD) …
Assay: ELISA, LAIR1 ECD coated
Procedure: (§1) The inventors then used a concentration titration (0-10 μg/ml) by ELISA to determine the LAIR1 monoclonal antibody (mAbs) binding to human LAIR1 ECD. […] For FIGS. 2-39, X axis indicates the antibody concentrations and Y-axis is binding signals, measured as OD (450 nm). To perform the ELISA assay, LAIR1 ECD recombinant protein was coated on high absorption 96-well plates. Serial diluted (3-fold) LAIR1 mAb was added to the coated/blocked plates and detected using goat anti-rabbit F(ab′)2 conjugated HRP as secondary antibody. All assays were repeated 3 times and the titration curves were fitted using 4-parameter fitting curve using the GraphPad software for EC₅₀ estimation.
(§2) Serial dilutions of the LAIR1 monoclonal antibodies (IgGs or scFvs fragments), starting from […] and 3-fold titration down for 12 steps, were added to the 96-well plate for binding by incubating 45 minutes at 37° C. with a cover on the assay plate. Then the plates were washed with PBS containing Tween 20 (0.05% concentration) for 3 times and PBS one time. […] Detection was conducted by adding HRP substrate, TMB (ThermoFisher) for 10 minutes, and stopped by adding 50 μl/well of 2N H2504. The plates were read for absorbance at 450 nm using a plate reader (SpectraMax M4, Molecular Devices). Data were collected and graphed using a 4-parameter fitting curve with GrapPad Prism 7 software for EC₅₀ calculation.

EC50 (read off the curve) [ng/mL]	Molecule
~30	B1
~20	B2
~20	B3
~50	B4
~50	B5
~10	B6
~30	B7

Target: T2, LAIR1 on LAIR1 reporter cells
Assay: cell-based or functional assay

GFP+% of LAIR1 reporter cells, collagen I coated, soluble Ab and K562 cells [%]	Molecule
24.6	B2
18.7	B3
19	B6
0.891	B7

Target: T3, recombinant LAIR1
Assay: BLI (Octet), mAb on protein A sensor, recombinant LAIR1 0.1-200 nM, 1:1 fit
Procedure: To perform the assay, antibody (30 μg/mL) was loaded to the proteins A sensor for 4 min, followed by a short buffering to establish baseline in kinetics buffer. The loaded sensors were then exposed to a series of recombinant LAIR1 concentrations (0.1-200 nM) for kinetic binding detection. Background subtraction was used to correct the sensor drifting. All experiments were performed with shaking at 1,000 rpm. Background wavelength shifts were measured from reference sensors that were loaded only with antibody. ForteBio's data analysis software was used to fit the data to a 1:1 binding model to extract an association rate and dissociation rate. The KD was calculated using the ratio […] using ForteBio's data analysis software 7.0.

Kd [nM]	koff [s⁻¹]	kon [M⁻¹ s⁻¹]	Molecule
0.196	4.23e-05	216000	B1
0.0337	8.02e-06	238000	B4
5.58	0.00222	397000	B5
0.127	2.41e-05	190000	B7

Target: T2, LAIR1 on LAIR1 reporter cells
Assay: not given

GFP+% of LAIR1 reporter cells, K562 coculture, no Ab (row Collagen I-ctrl) [%]	Molecule
42.5	collagen I (ligand)

Target: T2, LAIR1 on LAIR1 reporter cells
Assay: cell-based or functional assay
Remark: another data set of the same source

GFP+% of LAIR1 reporter cells, collagen I coated, soluble Ab [%]	Molecule
50.4	B2
63.2	B3
5.76	B6
1.11	B7

Target: T2, LAIR1 on LAIR1 reporter cells
Assay: not given
Remark: another data set of the same source

GFP+% of LAIR1 reporter cells, collagen I coated, no Ab (row collagen I-ctrl) [%]	Molecule
31.3	collagen I (ligand)

Target: T1, human LAIR1 extracellular domain (ECD) …
Assay: ELISA, LAIR1 ECD coated, mAb titrated, anti-rabbit HRP
Procedure: as §1, §2

EC50 [nM]	Molecule
0.22	B1
0.12	B2
0.04	B3
0.37	B4
0.3	B5
0.03	B6
0.21	B7

Target: T2, LAIR1 on LAIR1 reporter cells
Assay: cell-based or functional assay
Remark: another data set of the same source

GFP+ of LAIR1 reporter cells, Abs coated [%]	GFP+ of LAIR1 reporter cells, Collagen I coated [%]	GFP+ of LAIR1 reporter cells, Collagen I coated + K562 [%]	Molecule
> 40	> 40	> 40	B2
> 40	> 40	> 40	B3
> 40	< 5	–	B6
